What was measured:
GsuK [1] = molecular target: T1, GsuK (Geobacter sulfurreducens, UniProt Q74FS9, E52A/L97D, form not given); test: X-ray crystal structure, […] Å (co-crystallization); assay type: binding; details: 1 mM ADP, pH 9.0; Ca2+-bound closed gating ring; nucleotide site on RCK2; allosteric
T1 construct: gene GSU0527; full-length channel from Ala9 with extra N-terminal MQRGS; C-terminal His-tag cut by thrombin; E. coli BL21(DE3); tetramer; model residues 17-564

GsuK [2] = molecular target: T1, GsuK; test: X-ray crystal structure, […] Å (co-crystallization); assay type: binding; details: 1 mM NAD+, pH 9.0; Ca2+-bound closed gating ring; nucleotide site on RCK2, nicotinamide beneath RCK1 helix αF; partial occupancy; allosteric
[3] = molecular target: GsuK intracellular subunit (Geobacter sulfurreducens); test: crystal structure; GsuK intracellular subunit, about 8 mg/ml in LDAO, sitting drop at 20°C, 20–23% PEG3350, 120 mM KCl, 80 mM NaNO3, 1% glycerol, 100 mM Bis-Tris propane pH 8.5; space group I222, four subunits forming a gating ring in the asymmetric unit; 3.0 Å
[4] = molecular target: GsuK intracellular subunit (Geobacter sulfurreducens); test: SEC; Superdex-200 (10/30) in 50 mM Tris–HCl pH 8.0, 250 mM KCl, 2 mM DTT, 4 mM LDAO (GsuK intracellular subunit)
[5] = molecular target: full-length GsuK channel, L97D mutant (Geobacter sulfurreducens); test: crystal structure; full-length channel in DM with E. coli polar lipids, about 6 mg/ml, 20°C, 13–18% PEG3350, 250–500 mM KSCN, 100 mM CHES pH 9.0; space group C2, four subunits in the asymmetric unit as two half channels; L97D also co-crystallised with 1 mM ADP or NAD+
[6] = molecular target: full-length GsuK channel, wild type (with E52A and Q77E or R) (Geobacter sulfurreducens); test: SEC; Superdex-200 (10/30) in 20 mM CHES pH 9.0, 150 mM KSCN, 0.1 mg/ml E. coli polar lipid, 2 mM DTT, 4 mM DM (full-length GsuK channel)
[7] = molecular target: full-length GsuK channel, wild type (with E52A and Q77E or R) (Geobacter sulfurreducens); test: crystal structure; full-length channel in DM with E. coli polar lipids, about 6 mg/ml, 20°C, 13–18% PEG3350, 250–500 mM KSCN, 100 mM CHES pH 9.0; space group C2, four subunits in the asymmetric unit as two half channels; L97D also co-crystallised with 1 mM ADP or NAD+

T1 sequence (Q74FS9 entry or part of it E52A/L97D, form open): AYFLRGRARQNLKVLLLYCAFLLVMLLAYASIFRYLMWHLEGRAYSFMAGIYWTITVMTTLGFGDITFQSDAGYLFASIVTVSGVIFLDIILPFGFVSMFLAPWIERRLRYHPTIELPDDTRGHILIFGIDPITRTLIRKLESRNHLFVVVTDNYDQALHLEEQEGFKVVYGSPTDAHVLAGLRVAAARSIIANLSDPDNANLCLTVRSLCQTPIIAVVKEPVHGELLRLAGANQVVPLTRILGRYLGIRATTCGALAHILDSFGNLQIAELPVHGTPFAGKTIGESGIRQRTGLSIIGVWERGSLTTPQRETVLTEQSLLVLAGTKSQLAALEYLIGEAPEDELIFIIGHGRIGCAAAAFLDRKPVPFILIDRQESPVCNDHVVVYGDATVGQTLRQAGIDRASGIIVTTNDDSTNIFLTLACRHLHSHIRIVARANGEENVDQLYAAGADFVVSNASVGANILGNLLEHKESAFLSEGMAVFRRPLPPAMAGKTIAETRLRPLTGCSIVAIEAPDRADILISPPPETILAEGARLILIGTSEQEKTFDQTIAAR

Nc1ncnc2c1ncn2[C@@H]1O[C@H](COP(=O)(O)OP(=O)(O)O)[C@@H](O)[C@H]1O [ADP]
X-ray crystal structure, 2.8 Å (co-crystallization) (GsuK [1]): we also co-crystallized the L97D mutant with ADP and NAD^+

NC(=O)c1ccc[n+]([C@@H]2O[C@H](COP(=O)(O)OP(=O)(O)OC[C@H]3O[C@@H](n4cnc5c(N)ncnc54)[C@H](O)[C@@H]3O)[C@@H](O)[C@H]2O)c1 [NAD^+]
X-ray crystal structure, 3.2 Å (co-crystallization) (GsuK [2]): we also co-crystallized the L97D mutant with ADP and NAD^+

GsuK intracellular subunit (domain or fragment)
stoichiometry N [3]: 4 | stoichiometry N [4]: 4

full-length GsuK channel, L97D mutant (natural protein)
stoichiometry N [5]: 4

full-length GsuK channel, wild type (with E52A and Q77E or R) (natural protein)
stoichiometry N [6]: 4 | stoichiometry N [7]: 4

Source: paper PMC3510474, “Distinct gating mechanisms revealed by the structures of a multi-ligand gated K^+ channel” (eLife, 2012)
